Assay results as given in patent US8088892B2, “Inhibitors of proteins from the Rho-GEF family” (Centre National de la Recherche Scientifique (C.N.R.S.), priority 2002, dated 2012).
Entries after “also recorded” stand apart in the source; their conditions may differ.

B1: TRIAPα: aptamer of 154 amino acids: variable region of 42 amino acids inserted into the thioredoxin protein; tested as GST fusion (protein)
chain: MSDKIIHLTDDSFDTDVLKADGAILVDFWAEWCGPAREGADGAICGYNLATLVMLGPSERVFCPLCEPCSSDIYELMGPCKMIAPILDEIADEYQGKLTVAKLNIDQNPGTAPKYGIRGIPTLLLFKNGEVASATKVGALSKGQLKEFLDANLA

Columns and labels:
[1] = target: T1, control GEF (GEF720) (Homo sapiens, UniProt O94827); experiment: Yeast Exchange Assay (YEA), RhoA activation; format: cell-based; settings: yeast strain TAT7, reporter gene
T1 construct: expressed in transfected cells; host or cells: yeast strain TAT7
T1 sequence (O94827 1-1006): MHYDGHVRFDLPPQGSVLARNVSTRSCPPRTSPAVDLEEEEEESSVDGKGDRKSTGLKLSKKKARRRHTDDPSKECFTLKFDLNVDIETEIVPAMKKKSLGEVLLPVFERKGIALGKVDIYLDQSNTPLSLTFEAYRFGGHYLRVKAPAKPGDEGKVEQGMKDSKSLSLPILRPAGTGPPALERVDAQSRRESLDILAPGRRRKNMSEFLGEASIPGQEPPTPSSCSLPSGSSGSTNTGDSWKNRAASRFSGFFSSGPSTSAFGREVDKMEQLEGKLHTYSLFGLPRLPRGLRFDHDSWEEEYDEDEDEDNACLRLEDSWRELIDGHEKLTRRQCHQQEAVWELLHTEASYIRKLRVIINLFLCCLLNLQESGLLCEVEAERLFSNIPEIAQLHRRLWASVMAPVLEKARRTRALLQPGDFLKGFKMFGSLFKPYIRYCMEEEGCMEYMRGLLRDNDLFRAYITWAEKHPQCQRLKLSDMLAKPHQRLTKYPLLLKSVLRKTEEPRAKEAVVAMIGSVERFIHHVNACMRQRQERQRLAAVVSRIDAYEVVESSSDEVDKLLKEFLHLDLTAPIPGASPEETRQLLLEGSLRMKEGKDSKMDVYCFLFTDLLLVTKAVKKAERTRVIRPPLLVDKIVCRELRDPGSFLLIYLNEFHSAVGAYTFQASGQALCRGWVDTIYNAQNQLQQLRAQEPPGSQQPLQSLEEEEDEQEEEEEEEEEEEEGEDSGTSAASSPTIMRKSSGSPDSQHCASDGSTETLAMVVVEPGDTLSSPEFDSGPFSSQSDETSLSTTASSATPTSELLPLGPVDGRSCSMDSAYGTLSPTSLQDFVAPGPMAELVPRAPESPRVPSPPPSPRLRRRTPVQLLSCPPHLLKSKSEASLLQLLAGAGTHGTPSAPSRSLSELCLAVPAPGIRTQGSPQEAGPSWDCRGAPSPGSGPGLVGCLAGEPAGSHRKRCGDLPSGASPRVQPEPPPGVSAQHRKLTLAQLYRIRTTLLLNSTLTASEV
Description: The wild type GTPase is fused to the LexA DNA binding domain (Matchmaker GAL4 two-hybrid, Clontech Laboratories, Inc., USA) and the effector to the […] (Matchmaker GAL4 two-hybrid, Clontech, Inc., USA). Under these conditions, no binding occurs in the TAT7 strain (De Toledo et al., 2000). Upon addition of a third plasmid expressing the GEF, the GTPase gets activated and binds to its effector, thus leading to the transactivation of the reporter gene LacZ.
TrioGEFD2, a control GEF (GEF720) or an empty vector (−GEF: corresponds to a vector without GEF) were introduced into the YEA system and analysed for their ability to transactivate the reporter gene in absence (left panel) or in the presence (right panel) of TRIPα.
In order to better characterise the effect of TRIAPα on the Trio full length RhoGEF activity, the yeast exchange assay (YEA) was used, which is a quick and quantitative test derived from the classical two-hybrid system allowing to measure Rho-GEF activity and specificity (De Toledo et al., 2000). This functional assay is based on the fact that the GTPase binds to its effector only if it is activated by a RhoGEF. Briefly, yeasts are transformed with the GTPase fused to the LexA binding domain (LexA), and its effector to the GAL-4 Activating Domain (GAD), and with the adequate Rho-GEF partner in the yeast strain TAT7 (FIG. 7). […]

[2] = target: T2, GEFD2 domain of Kalirin (Rattus norvegicus, UniProt P97924); experiment: Binding specificity of aptamers in yeast; parameters: key to Binding in yeast: +++^1 and +^1 represent respectively a full and a partial (see FIG. 1) binding capacity; +++^1 and +^1 represent respectively a full and a partial (see FIG. 1) binding capacity; −−^1 represents a lack of binding
T2 construct: GEFD2 domain of Kalirin (a.a. 1640-1980); expressed in transfected cells; host or cells: yeast
Description: (§1) Trx represents the thioredoxin protein with no inserted peptide.
(§2) In order to identify specific inhibitors of TrioGEFD2, a recently developed strategy was used, this strategy being derived from the yeast two hybrid system, where the cDNA library of preys has been replaced by a combinatorial library of short peptides (20 amino acids) in fusion with the bacterial protein thioredoxin A (Colas et al., 1996). This strategy has been successfully used to isolate specific inhibitors of the cyclin-dependent kinases (Cdks), the cell cycle transcription factor E2F, or the viral HPV16 E6 oncoprotein and HBEV core protein (Colas et al., 1996; Butz et al., 2001; Fabrizzio et al., 1999; Geyer et al., 2000). The TrioGEFD2 bait was constructed as follows: plasmid pMTHATrio1848-2298 (Bellanger et al., 1998) was digested with EcoRI/XhoI and the insert cloned in pEG202EcoRI/XhoI to generate the bait pEG202TroGEFD2. Yeast strain EGY048 (Colas et al., 1996) was transformed with pEG202TrioGEFD2 and subsequently with the library of Thioredoxin constrained aptamers according to standard procedures (Ito et al., 1983). After transformation, cells were allowed to recover for 4 hours in galactose containing medium before plating on selective galactose medium. Of the 2×10^6 screened colonies, those growing in the selective medium were recovered and retested for interaction. […] Binding specificity was investigated by screening for interaction with the following baits: TrioDH2 (a.a. 1848-2096), TrioPH2 (a.a. 2107-2223), TrioGEFD1 (a.a. 1232-1629), Dbl (a.a. 498-826), Vav (ala. 172-598) (Zhang et al, 1994), GEFD2 domain of Kalirin (a.a. 1640-1980)(Penzes et al., 2001), p115RhoGEF (a.a. 391-870)(Wells et al, 2002) and PDZRhoGEF (a.a. 964-1362) (Fukuhara et al., 1999). None of these aptamers interacted with other RhoGEF members such as Dbl, Vav, and the RhoA-specific GEFs p115RhoGEF and PDZRhoGEF.

[3] = target: T3, TrioGEFD1 (DH1PH1) (Homo sapiens, UniProt O75962); experiment: Binding specificity of aptamers in yeast; parameters: key to Binding in yeast: +++^1 and +^1 represent respectively a full and a partial (see FIG. 1) binding capacity; +++^1 and +^1 represent respectively a full and a partial (see FIG. 1) binding capacity; −−^1 represents a lack of binding
T3 construct: TrioGEFD1 (a.a. 1232-1629); expressed in transfected cells; host or cells: yeast
Description: as §1, §2

| Molecule | Effect on control GEF (GEF720) in the YEA system [1] | Binding in yeast ([2]; RhoGEF KalirinDH2PH2) | Binding to the second RhoGEF domain of Kalirin in yeast ([2]; growth on selective medium) | Binding in yeast ([3]; RhoGEF TrioDH1PH1) | Binding to TrioGEFD1 (DH1PH1) in yeast ([3]; growth on selective medium) |
| --- | --- | --- | --- | --- | --- |
| AREGADGAICGYNLATLVMLGPSERVFCPLCEPCSSDIYELM [TRIPα, 42-amino acid peptide corresponding to the variable region of TRIAPα] | the control GEF is unaffected | – | – | – | – |
| B1 | – | +^1 | weakly interacts; also recorded: interacted weakly | +^1 | weakly interacts; also recorded: interacted weakly; also recorded: bound TrioGEFD1 in yeast |
